Our source for the remaining activity values is patent publication US9176064B2, “Bisubstrate fluorescent probes for protein kinase CK2” (University of Tartu, priority 2012, dated 2015).

Where a SMILES comes first, the peptide text is derived from it. [ ]: non-standard residue; d: D form. The star is where a group is joined. X1 = O=C(CCCCCCCn1cnc2c(Br)c(Br)c(Br)c(Br)c21)*

Test in all cases: Kinase panel residual activity
Common to all, as to type: biochemical
Holding throughout (details): compound at 1 micromolar

The target in series [1] is EF2K (Homo sapiens, UniProt O00418).
EF2K, sequence (O00418 whole entry): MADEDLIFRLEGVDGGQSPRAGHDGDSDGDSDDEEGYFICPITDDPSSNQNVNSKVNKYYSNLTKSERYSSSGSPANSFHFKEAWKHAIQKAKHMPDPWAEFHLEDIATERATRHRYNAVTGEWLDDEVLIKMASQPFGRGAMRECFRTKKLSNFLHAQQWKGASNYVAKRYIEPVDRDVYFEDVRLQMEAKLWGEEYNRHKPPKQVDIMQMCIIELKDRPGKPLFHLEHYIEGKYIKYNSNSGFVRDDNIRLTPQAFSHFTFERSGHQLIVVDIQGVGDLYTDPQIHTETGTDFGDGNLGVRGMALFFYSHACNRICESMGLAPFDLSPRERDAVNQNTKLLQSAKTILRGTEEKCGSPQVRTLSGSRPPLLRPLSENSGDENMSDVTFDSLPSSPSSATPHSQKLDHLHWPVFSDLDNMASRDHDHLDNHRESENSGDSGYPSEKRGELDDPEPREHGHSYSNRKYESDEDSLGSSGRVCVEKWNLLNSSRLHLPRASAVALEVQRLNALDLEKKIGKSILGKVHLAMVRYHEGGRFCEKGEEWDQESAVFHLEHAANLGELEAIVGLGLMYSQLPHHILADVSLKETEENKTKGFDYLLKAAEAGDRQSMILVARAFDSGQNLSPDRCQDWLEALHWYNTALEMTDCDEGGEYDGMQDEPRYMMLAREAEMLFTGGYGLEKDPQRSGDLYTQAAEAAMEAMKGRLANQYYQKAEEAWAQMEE
In series [2] the target is MLK3 (Homo sapiens, UniProt Q16584).
MLK3, sequence (Q16584 whole entry, species assumed): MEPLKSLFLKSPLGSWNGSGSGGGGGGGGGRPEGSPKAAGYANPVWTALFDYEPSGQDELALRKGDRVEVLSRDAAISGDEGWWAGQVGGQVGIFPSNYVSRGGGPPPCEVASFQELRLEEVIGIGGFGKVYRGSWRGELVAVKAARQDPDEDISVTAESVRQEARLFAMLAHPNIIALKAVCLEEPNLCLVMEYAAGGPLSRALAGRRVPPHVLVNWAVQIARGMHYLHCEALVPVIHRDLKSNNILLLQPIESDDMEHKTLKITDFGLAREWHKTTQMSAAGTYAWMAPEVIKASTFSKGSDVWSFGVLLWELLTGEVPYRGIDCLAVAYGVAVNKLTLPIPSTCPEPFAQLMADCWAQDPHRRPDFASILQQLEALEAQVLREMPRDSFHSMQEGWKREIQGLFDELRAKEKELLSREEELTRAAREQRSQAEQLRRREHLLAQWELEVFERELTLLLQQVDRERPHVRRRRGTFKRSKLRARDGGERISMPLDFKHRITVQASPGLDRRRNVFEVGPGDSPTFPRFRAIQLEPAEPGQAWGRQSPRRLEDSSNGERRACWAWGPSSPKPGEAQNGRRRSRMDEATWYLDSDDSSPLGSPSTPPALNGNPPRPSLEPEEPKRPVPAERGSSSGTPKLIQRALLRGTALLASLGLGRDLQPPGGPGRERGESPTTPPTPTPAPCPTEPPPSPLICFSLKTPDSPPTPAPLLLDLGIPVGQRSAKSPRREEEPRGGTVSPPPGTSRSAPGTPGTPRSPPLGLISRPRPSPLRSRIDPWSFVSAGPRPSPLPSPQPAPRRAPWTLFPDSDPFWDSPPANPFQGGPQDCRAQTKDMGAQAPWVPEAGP
For series [3], the target named is T1, LKB1 (Homo sapiens, UniProt Q15831).
T1 sequence (Q15831 1-433): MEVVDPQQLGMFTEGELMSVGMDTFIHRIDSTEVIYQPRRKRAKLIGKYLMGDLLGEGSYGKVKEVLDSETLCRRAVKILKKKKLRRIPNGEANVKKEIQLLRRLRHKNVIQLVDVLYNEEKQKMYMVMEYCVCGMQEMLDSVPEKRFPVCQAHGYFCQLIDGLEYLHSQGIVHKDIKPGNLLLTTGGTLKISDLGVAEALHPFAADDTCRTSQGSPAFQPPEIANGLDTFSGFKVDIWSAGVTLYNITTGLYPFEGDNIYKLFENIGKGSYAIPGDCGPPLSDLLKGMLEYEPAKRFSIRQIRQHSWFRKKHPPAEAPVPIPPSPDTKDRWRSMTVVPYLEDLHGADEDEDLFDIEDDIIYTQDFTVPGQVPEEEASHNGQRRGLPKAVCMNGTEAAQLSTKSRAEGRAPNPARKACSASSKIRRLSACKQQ
T1 sequence (Q7RTN6 1-431 partner): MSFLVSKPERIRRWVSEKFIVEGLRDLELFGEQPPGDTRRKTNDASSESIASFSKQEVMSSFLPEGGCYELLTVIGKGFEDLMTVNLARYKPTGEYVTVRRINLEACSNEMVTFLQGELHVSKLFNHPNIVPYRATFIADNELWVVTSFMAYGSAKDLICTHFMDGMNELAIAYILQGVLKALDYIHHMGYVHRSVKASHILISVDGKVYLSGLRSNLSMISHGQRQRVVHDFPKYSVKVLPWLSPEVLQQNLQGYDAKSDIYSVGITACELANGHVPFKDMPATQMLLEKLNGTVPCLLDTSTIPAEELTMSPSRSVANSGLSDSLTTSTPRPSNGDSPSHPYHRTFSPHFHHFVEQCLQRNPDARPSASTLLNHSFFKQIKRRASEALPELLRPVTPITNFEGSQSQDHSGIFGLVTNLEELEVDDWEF
T1 sequence (Q9Y376 1-341 partner): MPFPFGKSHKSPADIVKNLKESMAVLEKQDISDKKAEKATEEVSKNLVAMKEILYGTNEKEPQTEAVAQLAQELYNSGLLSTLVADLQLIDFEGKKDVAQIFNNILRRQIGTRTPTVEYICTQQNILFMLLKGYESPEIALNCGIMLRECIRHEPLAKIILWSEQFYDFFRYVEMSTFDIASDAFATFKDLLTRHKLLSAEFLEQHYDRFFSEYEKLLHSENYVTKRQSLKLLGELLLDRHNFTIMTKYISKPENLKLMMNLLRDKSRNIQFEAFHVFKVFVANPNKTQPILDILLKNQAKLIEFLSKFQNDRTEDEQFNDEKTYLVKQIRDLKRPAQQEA

For series [4], the target named is FGF-R1 (Homo sapiens, UniProt P11362).
FGF-R1, sequence (P11362 22-822, species assumed): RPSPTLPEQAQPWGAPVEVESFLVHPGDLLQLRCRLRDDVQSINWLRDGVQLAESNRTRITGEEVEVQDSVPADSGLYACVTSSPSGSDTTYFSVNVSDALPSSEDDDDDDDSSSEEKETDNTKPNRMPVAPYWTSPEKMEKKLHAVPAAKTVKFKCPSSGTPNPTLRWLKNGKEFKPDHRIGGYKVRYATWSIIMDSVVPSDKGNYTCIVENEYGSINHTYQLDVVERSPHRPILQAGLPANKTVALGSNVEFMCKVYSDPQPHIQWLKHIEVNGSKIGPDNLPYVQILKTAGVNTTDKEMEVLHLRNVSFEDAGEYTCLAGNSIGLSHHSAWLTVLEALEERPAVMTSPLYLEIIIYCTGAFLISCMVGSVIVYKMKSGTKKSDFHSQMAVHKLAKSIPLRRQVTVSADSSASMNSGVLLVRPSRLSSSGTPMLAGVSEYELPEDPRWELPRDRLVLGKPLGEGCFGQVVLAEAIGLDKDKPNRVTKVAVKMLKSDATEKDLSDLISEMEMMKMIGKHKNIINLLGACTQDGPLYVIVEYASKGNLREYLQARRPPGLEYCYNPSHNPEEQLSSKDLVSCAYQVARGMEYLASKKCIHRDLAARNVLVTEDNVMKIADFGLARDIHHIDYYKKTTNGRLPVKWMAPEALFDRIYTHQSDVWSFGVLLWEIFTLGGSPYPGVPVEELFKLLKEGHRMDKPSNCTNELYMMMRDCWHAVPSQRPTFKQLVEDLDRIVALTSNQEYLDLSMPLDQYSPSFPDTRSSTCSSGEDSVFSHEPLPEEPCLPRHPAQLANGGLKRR
For series [5], the target named is T2, ULK1 (Homo sapiens, UniProt O75385).
T2 sequence (O75385 1-1050): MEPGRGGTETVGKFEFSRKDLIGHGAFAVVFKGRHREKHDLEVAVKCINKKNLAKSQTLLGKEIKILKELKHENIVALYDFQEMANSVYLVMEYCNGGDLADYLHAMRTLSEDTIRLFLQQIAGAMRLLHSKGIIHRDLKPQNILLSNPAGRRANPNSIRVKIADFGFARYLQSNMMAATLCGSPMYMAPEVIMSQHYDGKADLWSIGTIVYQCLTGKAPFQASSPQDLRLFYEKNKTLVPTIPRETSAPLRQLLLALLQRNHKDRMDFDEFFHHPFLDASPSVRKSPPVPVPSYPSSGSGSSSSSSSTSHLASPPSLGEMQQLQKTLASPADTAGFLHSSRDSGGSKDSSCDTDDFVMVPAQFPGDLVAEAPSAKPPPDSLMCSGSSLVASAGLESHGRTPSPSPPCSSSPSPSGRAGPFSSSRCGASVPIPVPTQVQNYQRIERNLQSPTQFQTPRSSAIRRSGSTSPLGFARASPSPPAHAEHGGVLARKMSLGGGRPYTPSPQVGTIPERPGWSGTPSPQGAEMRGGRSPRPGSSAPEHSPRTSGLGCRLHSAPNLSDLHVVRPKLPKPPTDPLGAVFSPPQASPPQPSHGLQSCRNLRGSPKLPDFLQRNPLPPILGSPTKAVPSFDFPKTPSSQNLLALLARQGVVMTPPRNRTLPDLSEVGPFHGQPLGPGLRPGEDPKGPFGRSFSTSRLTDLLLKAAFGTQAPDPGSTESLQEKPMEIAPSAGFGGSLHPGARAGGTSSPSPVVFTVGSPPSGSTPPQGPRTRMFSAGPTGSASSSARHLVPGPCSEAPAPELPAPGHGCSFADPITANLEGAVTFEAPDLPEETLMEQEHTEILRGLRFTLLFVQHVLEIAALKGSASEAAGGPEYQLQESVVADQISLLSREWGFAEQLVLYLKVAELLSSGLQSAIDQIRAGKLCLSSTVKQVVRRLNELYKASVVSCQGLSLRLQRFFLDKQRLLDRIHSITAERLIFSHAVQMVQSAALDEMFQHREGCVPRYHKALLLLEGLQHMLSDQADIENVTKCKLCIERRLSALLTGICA

In series [6] the target is MAP4K5 (Homo sapiens, UniProt Q9Y4K4).
MAP4K5, sequence (Q9Y4K4 whole entry, species assumed): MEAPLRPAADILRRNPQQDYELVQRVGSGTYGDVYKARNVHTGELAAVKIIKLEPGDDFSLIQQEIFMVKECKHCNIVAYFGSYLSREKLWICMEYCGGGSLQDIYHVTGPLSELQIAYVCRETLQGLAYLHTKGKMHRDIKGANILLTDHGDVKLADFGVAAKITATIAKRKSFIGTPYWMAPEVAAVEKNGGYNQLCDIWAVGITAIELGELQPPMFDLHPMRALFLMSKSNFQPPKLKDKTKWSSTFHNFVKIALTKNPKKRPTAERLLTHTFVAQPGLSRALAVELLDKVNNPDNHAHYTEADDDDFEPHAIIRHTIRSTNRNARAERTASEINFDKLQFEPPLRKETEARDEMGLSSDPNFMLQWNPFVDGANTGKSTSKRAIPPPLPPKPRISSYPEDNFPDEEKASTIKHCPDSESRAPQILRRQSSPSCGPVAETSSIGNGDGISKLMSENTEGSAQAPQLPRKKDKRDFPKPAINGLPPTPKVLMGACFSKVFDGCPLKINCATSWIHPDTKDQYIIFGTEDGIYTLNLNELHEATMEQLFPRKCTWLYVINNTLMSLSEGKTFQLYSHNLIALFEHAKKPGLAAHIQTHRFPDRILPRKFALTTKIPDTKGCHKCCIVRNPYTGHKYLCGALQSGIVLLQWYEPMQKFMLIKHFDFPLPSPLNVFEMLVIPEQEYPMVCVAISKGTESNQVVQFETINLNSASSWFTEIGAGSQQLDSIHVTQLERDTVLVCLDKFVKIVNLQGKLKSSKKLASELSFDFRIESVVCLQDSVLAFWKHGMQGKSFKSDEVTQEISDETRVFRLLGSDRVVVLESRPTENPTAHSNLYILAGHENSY

For the compound `NCCCC[C@H](NC(=O)[C@H](CC(=O)O)NC(=O)[C@H](CC(=O)O)NC(=O)[C@H](CC(=O)O)NC(=O)[C@H](CC(=O)O)NC(=O)[C@H](CC(=O)O)NC(=O)[C@@H](CC(=O)O)NC(=O)CCCCCCCn1cnc2c(Br)c(Br)c(Br)c(Br)c21)C(=O)O` [TBBI-OcA-(D-Asp)-(L-Asp)5-(L-Lys)-OH] (X1-[dD]DDDDDK-OH), the remaining activity at 1 µM in series [1] came out at 80%; in series [2], 89%; in series [3], 96%; in series [4] it was 110%; in series [5] it was 111%; in series [6], 132%.

In general, remaining activity refers to the signal under treatment as a percentage of the control signal.
